± gives the standard deviation of the averaged measurements.
Test: total protein half-life in vivo (active degradation + dilution); higher = more stable protein
[1] = E. coli NCM3722 delta-clpP delta-lon delta-hslV, growth: N-lim chemostat, doubling time 6 h
[2] = E. coli NCM3722 delta-clpP, growth: N-lim chemostat, doubling time 6 h
[3] = E. coli NCM3722 delta-hslV, growth: N-lim chemostat, doubling time 6 h
[4] = E. coli NCM3722 delta-lon, growth: N-lim chemostat, doubling time 6 h
[5] = E. coli NCM3722 delta-smpB, growth: N-lim chemostat, doubling time 6 h
[6] = wild type E. coli NCM3722, growth: C-lim chemostat, doubling time 3 h
[7] = wild type E. coli NCM3722, growth: C-lim chemostat, doubling time 6 h
[8] = wild type E. coli NCM3722, growth: C-lim chemostat, doubling time 12 h
[9] = wild type E. coli NCM3722, growth: N-lim chemostat, doubling time 6 h
[10] = wild type E. coli NCM3722, growth: P-lim chemostat, doubling time 6 h
[11] = wild type E. coli NCM3722, growth: P-lim chemostat, doubling time 12 h
[12] = wild type E. coli NCM3722, growth: N-lim chemostat, doubling time 12 h

Sequence	total protein half-life in vivo [1] [h]	total protein half-life in vivo [2] [h]	total protein half-life in vivo [3] [h]	total protein half-life in vivo [4] [h]	total protein half-life in vivo [5] [h]	total protein half-life in vivo [6] [h]	total protein half-life in vivo [7] [h]	total protein half-life in vivo [8] [h]	total protein half-life in vivo [9] [h]	total protein half-life in vivo [10] [h]	total protein half-life in vivo [11] [h]	total protein half-life in vivo [12] [h]
MSIVMQLQDVAESTRLGPLSGEVRAGEILHLVGPNGAGKSTLLARMAGMTSGKGSIQFAGQPLEAWSATKLALHRAYLSQQQTPPFATPVWHYLTLHQHDKTRTELLNDVAGALALDDKLGRSTNQLSGGEWQRVRLAAVVLQITPQANPAGQLLLLDEPMNSLDVAQQSALDKILSALCQQGLAIVMSSHDLNHTLRHAHRAWLLKGGKMLASGRREEVLTPPNLAQAYGMNFRRLDIEGHRMLISTI	4.65 ± 0.84	2.32 ± 0.27	3.72	2.59	2.37 ± 0.03	2.13 ± 0.1	3.49 ± 0.41	4.65	3.11 ± 0.33	4.37	6.509 ± 0.027	–
MKHGIKALLITLSLACAGMSHSALAAASVAKPTAVETKAEAPAAQSKAAVPAKASDEEGTRVSINNASAEELARAMNGVGLKKAQAIVSYREEYGPFKTVEDLKQVPGMGNSLVERNLAVLTL [P0AAR8]	–	–	–	–	–	–	–	3.36	–	–	–	–
MMGKLIWLMGPSGSGKDSLLAELRLREQTQLLVAHRYITRDASAGSENHIALSEQEFFTRAGQNLLALSWHANGLYYGVGVEIDLWLHAGFDVLVNGSRAHLPQARARYQSALLPVCLQVSPEILRQRLENRGRENASEINARLARAARYTPQDCHTLNNDGSLRQSVDTLLTLIHQKEKHHACL	5.33	–	–	–	–	–	–	–	–	0.578	1.28	–
MSMSHINYNHLYYFWHVYKEGSVVGAAEALYLTPQTITGQIRALEERLQGKLFKRKGRGLEPSELGELVYRYADKMFTLSQEMLDIVNYRKESNLLFDVGVADALSKRLVSSVLNAAVVEGEPIHLRCFESTHEMLLEQLSQHKLDMIISDCPIDSTQQEGLFSVRIGECGVSFWCTNPPPEKPFPACLEERRLLIPGRRSMLGRKLLNWFNSQGLNVEILGEFDDAALMKAFGAMHNAIFVAPTLYAYDFYADKTVVEIGRVENVMEEYHAIFAERMIQHPAVQRICNTDYSALFSPAVR [P0A9G2]	6.03 ± 0.4	6.18	4.38	5.99 ± 1.4	5.21 ± 0.34	–	5.51	9.31	5.76 ± 1.2	4.93 ± 1.5	10.2	–
MDIFISKKMRNFILLAQTNNIARAAEKIHMTASPFGKSIAALEEQIGYTLFTRKDNNISLNKAGQELYQKLFPVYQRLSAIDNEIHNSGRRSREIVIGIDNTYPTIIFDQLISLGDKYEGVTAQPVEFSENGVIDNLFDRQLDFIISPQHVSARVQELENLTISELPPLRLGFLVSRRYEERQEQELLQELPWLQMRFQNRANFEAMIDANMRPCGINPTIIYRPYSFMAKISAVERGHFLTVIPHFAWRLVNPATLKYFDAPHRPMYMQEYLYSIRNHRYTATMLQHIAEDRDGTSH	5.12	–	–	–	–	–	–	–	–	–	–	9.66
MAQRIFTLILLLCSTSVFAGLFDAPGRSQFVPADQAFAFDFQQNQHDLNLTWQIKDGYYLYRKQIRITPEHAKIADVQLPQGVWHEDEFYGKSEIYRDRLTLPVTINQASAGATLTVTYQGCADAGFCYPPETKTVPLSEVVANNAAPQPVSVPQQEQPTAQLPFSALWALLIGIGIAFTPCVLPMYPLISGIVLGGKQRLSTARALLLTFIYVQGMALTYTALGLVVAAAGLQFQAALQHPYVLIGLAIVFTLLAMSMFGLFTLQLPSSLQTRLTLMSNRQQGGSPGGVFVMGAIAGLICSPCTTAPLSAILLYIAQSGNMWLGGGTLYLYALGMGLPLMLITVFGNRLLPKSGPWMEQVKTAFGFVILALPVFLLERVIGDVWGLRLWSALGVAFFGWAFITSLQAKRGWMRIVQIILLAAALVSVRPLQDWAFGATHTAQTQTHLNFTQIKTVDELNQALVEAKGKPVMLDLYADWCVACKEFEKYTFSDPQVQKALADTVLLQANVTANDAQDVALLKHLNVLGLPTILFFDGQGQEHPQARVTGFMDAETFSAHLRDRQP	6.33 ± 0.17	6.16 ± 0.66	5.61 ± 0.96	6.37 ± 0.69	5.76 ± 0.13	–	5.22 ± 0.15	13.2 ± 1	6.08 ± 0.72	5.82 ± 0.19	12.35 ± 0.1	11.9 ± 0.37
MSLFHLIAPSGYCIKQHAALRGIQRLTDAGHQVNNVEVIARRCERFAGTETERLEDLNSLARLTTPNTIVLAVRGGYGASRLLADIDWQALVARQQHDPLLICGHSDFTAIQCGLLAHGNVITFSGPMLVANFGADELNAFTEHHFWLALRNETFTIEWQGEGPTCRAEGTLWGGNLAMLISLIGTPWMPKIENGILVLEDINEHPFRVERMLLQLYHAGILPRQKAIILGSFSGSTPNDYDAGYNLESVYAFLRSRLSIPLITGLDFGHEQRTVTLPLGAHAILNNTREGTQLTISGHPVLKM	4.96 ± 0.9	3.76 ± 0.25	4.05 ± 0.72	4.07 ± 0.22	3.65 ± 0.53	3.13 ± 0.084	5 ± 0.86	9.85 ± 0.41	3.693 ± 0.016	6.058 ± 0.043	10.8 ± 0.56	6.99 ± 0.87
MPVAHVALPVPLPRTFDYLLPEGMTVKAGCRVRVPFGKQQERIGIVVSVSDASELPLNELKAVVEVLDSEPVFTHSVWRLLLWAADYYHHPIGDVLFHALPILLRQGRPAANAPMWYWFATEQGQAVDLNSLKRSPKQQQALAALRQGKIWRDQVATLEFNDAALQALRKKGLCDLASETPEFSDWRTNYAVSGERLRLNTEQATAVGAIHSAADTFSAWLLAGVTGSGKTEVYLSVLENVLAQGKQALVMVPEIGLTPQTIARFRERFNAPVEVLHSGLNDSERLSAWLKAKNGEAAIVIGTRSALFTPFKNLGVIVIDEEHDSSYKQQEGWRYHARDLAVYRAHSEQIPIILGSATPALETLCNVQQKKYRLLRLTRRAGNARPAIQHVLDLKGQKVQAGLAPALITRMRQHLQADNQVILFLNRRGFAPALLCHDCGWIAECPRCDHYYTLHQAQHHLRCHHCDSQRPVPRQCPSCGSTHLVPVGLGTEQLEQTLAPLFPGVPISRIDRDTTSRKGALEQQLAEVHRGGARILIGTQMLAKGHHFPDVTLVALLDVDGALFSADFRSAERFAQLYTQVAGRAGRAGKQGEVVLQTHHPEHPLLQTLLYKGYDAFAEQALAERRMMQLPPWTSHVIVRAEDHNNQHAPLFLQQLRNLILSSPLADEKLWVLGPVPALAPKRGGRWRWQILLQHPSRVRLQHIINGTLALINTIPDSRKVKWVLDVDPIEG	5.492 ± 0.011	6.24 ± 0.23	5.9 ± 0.067	5.89 ± 0.2	5.23 ± 0.45	2.86 ± 0.03	5.85 ± 0.21	9.53 ± 1.3	5.35 ± 0.074	6.13 ± 0.2	–	12.2 ± 1
MGMIGYFAEIDSEKINQLLESTEKPLMDNIHDTLSGLRRLDIDKRWDFLHFGLTGTSAFDPAKNDPLSRAVLGEHSLEDGIDGFLGLTWNQELAATIDRLESLDRNELRKQFSIKRLNEMEIYPGVTFSEELEGQLFASIMLDMEKLISAYRRMLRQGNHALTVIVG	–	–	2.19	–	1.91 ± 0.022	1.89	4.04	4.57	–	3.44 ± 0.17	6.19 ± 0.12	–
MGFKCGIVGLPNVGKSTLFNALTKAGIEAANFPFCTIEPNTGVVPMPDPRLDQLAEIVKPQRTLPTTMEFVDIAGLVKGASKGEGLGNQFLTNIRETEAIGHVVRCFENDNIIHVSGKVNPADDIEVINTELALADLDTCERAIHRVQKKAKGGDKDAKAELAVLEKCLPQLENAGMLRALDLSAEEKAAIRYLSFLTLKPTMYIANVNEDGFENNPYLDQVREIAAKEGSVVVPVCAAVEADIAELDDEERDEFMQELGLEEPGLNRVIRAGYKLLNLQTYFTAGVKEVRAWTIPVGATAPQAAGKIHTDFEKGFIRAQTISFEDFITYKGEQGAKEAGKMRAEGKDYIVKDGDVMNFLFNV [P0ABU2]	3.92 ± 0.14	3.74 ± 0.63	3.66 ± 0.24	4.72 ± 0.67	3.69 ± 0.13	3.61 ± 0.17	4.77 ± 0.28	9.13 ± 0.49	3.5 ± 0.18	5.12 ± 0.4	9.68 ± 0.37	5.15 ± 0.31
MSHSSAPERATGAVITDWRPEDPAFWQQRGQRIASRNLWISVPCLLLAFCVWMLFSAVAVNLPKVGFNFTTDQLFMLTALPSVSGALLRVPYSFMVPIFGGRRWTAFSTGILIIPCVWLGFAVQDTSTPYSVFIIISLLCGFAGANFASSMANISFFFPKQKQGGALGLNGGLGNMGVSVMQLVAPLVVSLSIFAVFGSQGVKQPDGTELYLANASWIWVPFLAIFTIAAWFGMNDLATSKASIKEQLPVLKRGHLWIMSLLYLATFGSFIGFSAGFAMLSKTQFPDVQILQYAFFGPFIGALARSAGGALSDRLGGTRVTLVNFILMAIFSGLLFLTLPTDGQGGSFMAFFAVFLALFLTAGLGSGSTFQMISVIFRKLTMDRVKAEGGSDERAMREAATDTAAALGFISAIGAIGGFFIPKAFGSSLALTGSPVGAMKVFLIFYIACVVITWAVYGRHSKK	–	–	–	–	–	–	–	–	–	–	–	8.46
MTRPVTLSEPHFSQHTLNKYASLMAQGNGYLGLRASHEEDYTRQTRGMYLAGLYHRAGKGEINELVNLPDVVGMEIAINGEVFSLSHEAWQRELDFASGELRRNVVWRTSNGSGYTIASRRFVSADQLPLIALEITITPLDADASVLISTGIDATQTNHGRQHLDETQVRVFGQHLMQGSYTTQDGRSDVAISCCCKVSGDVQQCYTAKERRLLQHTSAQLHAGETMTLQKLVWIDWRDDRQAALDEWGSASLRQLEMCAQQSYDQLLAASTENWRQWWQKRRITVNGGEAHDQQALDYALYHLRIMTPAHDERSSIAAKGLTGEGYKGHVFWDTEVFLLPFHLFSDPTVARSLLRYRWHNLPGAQEKARRNGWQGALFPWESARSGEEETPEFAAINIRTGLRQKVASAQAEHHLVADIAWAVIQYWQTTGDESFIAHEGMALLLETAKFWISRAVRVNDRLEIHDVIGPDEYTEHVNNNAYTSYMARYNVQQALNIARQFGCSDDAFIHRAEMFLKELWMPEIQPDGVLPQDDSFMAKPAINLAKYKAAAGKQTILLDYSRAEVNEMQILKQADVVMLNYMLPEQFSAASCLANLQFYEPRTIHDSSLSKAIHGIVAARCGLLTQSYQFWREGTEIDLGADPHSCDDGIHAAATGAIWLGAIQGFAGVSVRDGELHLNPALPEQWQQLSFPLFWQGCELQVTLDAQRIAIRTSAPVSLRLNGQLITVAEESVFCLGDFILPFNGTATKHQEDE	5.63	–	–	–	–	–	–	–	–	–	–	–
MHVTLVEINVHEDKVDEFIEVFRQNHLGSVQEEGNLRFDVLQDPEVNSRFYIYEAYKDEDAVAFHKTTPHYKTCVAKLESLMTGPRKKRLFNGLMP	4.55 ± 0.72	2.71	> 8	3 ± 0.2	–	2.49 ± 0.49	3.66 ± 0.24	3.93 ± 0.26	2.69	–	–	4.86
MQLKRVAEAKLPTPWGDFLMVGFEELATGHDHVALVYGDISGHTPVLARVHSECLTGDALFSLRCDCGFQLEAALTQIAEEGRGILLYHRQEGRNIGLLNKIRAYALQDQGYDTVEANHQLGFAADERDFTLCADMFKLLGVNEVRLLTNNPKKVEILTEAGINIVERVPLIVGRNPNNEHYLDTKAEKMGHLLNK [P0A7I7]	4.5 ± 0.35	4.52 ± 0.67	4.48 ± 0.35	4.54 ± 0.19	4.54 ± 0.23	2.92 ± 0.095	5.1 ± 0.3	8.93 ± 0.54	4.27 ± 0.17	6.08 ± 0.73	10.3 ± 0.8	6.85 ± 0.2
MLEQMGIAAKQASYKLAQLSSREKNRVLEKIADELEAQSEIILNANAQDVADARANGLSEAMLDRLALTPARLKGIADDVRQVCNLADPVGQVIDGGVLDSGLRLERRRVPLGVIGVIYEARPNVTVDVASLCLKTGNAVILRGGKETCRTNAATVAVIQDALKSCGLPAGAVQAIDNPDRALVSEMLRMDKYIDMLIPRGGAGLHKLCREQSTIPVITGGIGVCHIYVDESVEIAEALKVIVNAKTQRPSTCNTVETLLVNKNIADSFLPALSKQMAESGVTLHADAAALAQLQAGPAKVVAVKAEEYDDEFLSLDLNVKIVSDLDDAIAHIREHGTQHSDAILTRDMRNAQRFVNEVDSSAVYVNASTRFTDGGQFGLGAEVAVSTQKLHARGPMGLEALTTYKWIGIGDYTIRA	5.127 ± 0.031	4.65 ± 0.2	4.64 ± 0.14	4.75 ± 0.29	4.5 ± 0.067	3.12 ± 0.3	5.68 ± 0.2	10.9 ± 0.47	4.65 ± 0.12	5.31 ± 0.65	12.15 ± 0.096	7.82 ± 0.18
